According to patent publication US20060182721A1:

Biological target: Notch on human peripheral blood CD14-positive cells (human)
Experiment: cell-based or functional assay

- level of HES-1 gene expression (real-time RT-PCR, ratio to GAPDH) in CD14-positive cells after 24 hours of culture: 8 times
Substance: Delta-1 construct composed of the human Delta-1 extracellular domain and 6 myc proteins (from UniProt O00548 18-545) (ligand)
